The values that follow come from PMC4301871 (2015).

Common to all, as to experiment: ITC
The target of one assay is T1, LATS1-b (Homo sapiens).
T1 chain: YQGPPPPYPKHL

Another assay addresses T2, PTCH1-a (Homo sapiens).
T2 chain: RYSPPPPYSSHS

A further assay concerns the target T3, LATS2 (Homo sapiens).
T3 chain: RRCPPPPYPKHL

The next assay concerns the target T4, LATS1-a (Homo sapiens).
T4 chain: NRQPPPPYPLTA

The target of another assay is T5, PTCH1-b (Homo sapiens).
T5 chain: EGLWPPPYRPRR

Several values for one entry are separate records, joined by “and”; a condition that tells them apart may be missing. Equal values may be shown once.

A word on the Kd: it is a measure of binding affinity in units of concentration. Read a low Kd as a tighter complex.

For the molecule ASGPLPDGWEQAMTQDGEIYYINHKNKTTSWLDPRLDPRFAMNQ [YAP-WW2 228-271], the dissociation constant (Kd) with LATS1-b was 33.9 µM; with PTCH1-a, 45.8 µM; with LATS2, 8.2 µM; with LATS1-a, 27 µM.

B1: YAP-WW1-WW2 165-271 (protein)
chain: FEIPDDVPLPAGWEMAKTSSGQRYFLNHIDQTTTWQDPRKAMLSQMNVTAPTSPPVQQNMMNSASGPLPDGWEQAMTQDGEIYYINHKNKTTSWLDPRLDPRFAMNQ
On to B1, for which the dissociation constant Kd in the assay with PTCH1-a was 47.4 µM and 24.7 µM; with LATS2, 9.2 µM; with PTCH1-b, 16.9 µM; in the assay with LATS1-a it was 33.4 µM.

Regarding FEIPDDVPLPAGWEMAKTSSGQRYFLNHIDQTTTWQDPRKAMLSQ [YAP-WW1 165-209], the Kd with LATS1-b turned out to be 3.7 µM; in the assay with PTCH1-a it was 27.6 µM; in the assay with LATS2, 7.1 µM; with PTCH1-b, 13.2 µM; with LATS1-a, 21.5 µM.
